# Assay results taken from patent publication US20230129812A1, “COMPOSITIONS AND METHODS FOR TREATING PULMONARY HYPERTENSION” (Acceleron Pharma Inc., priority 2020, published 2023).
# T1: GDF3 (Homo sapiens, UniProt Q9NR23)
# T1 sequence (Q9NR23 251-364): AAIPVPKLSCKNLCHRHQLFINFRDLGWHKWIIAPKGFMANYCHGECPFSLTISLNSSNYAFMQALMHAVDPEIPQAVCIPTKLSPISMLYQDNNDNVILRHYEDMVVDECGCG
# T2: GDF11 (Homo sapiens, UniProt O95390)
# T2 sequence (O95390 299-407): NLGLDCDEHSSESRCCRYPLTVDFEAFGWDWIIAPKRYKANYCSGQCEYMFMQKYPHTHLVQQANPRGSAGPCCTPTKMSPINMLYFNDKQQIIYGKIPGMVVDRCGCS
# Tests used:
# GDF3 = target: T1, GDF3; experiment: Biacore ligand binding profile, ALK4-Fc:ActRIIB-Fc heterodimer vs homodimers, anti-Fc capture (Example 13, Table 13)
# GDF11 = target: T2, GDF11; experiment: A-204 reporter gene assay, pGL3(CAGA)12 luciferase; format: cell-based; conditions: A-204 reporter gene assay
# Summary of the method: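 Human rhabdomyosarcoma A-204 cells transfected with SMAD-responsive pGL3(CAGA)12 luciferase reporter (optionally with pRLCMV). Ligand in medium + 0.1% BSA, preincubated ~1 h with Fc-fusion inhibitor before addition to cells; after ~6 h cells lysed and luciferase activity measured.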
molecule,measurement,setting,value
"ALK4-Fc:ActRIIB-Fc heterodimer: heteromeric complex of extracellular domains of human ActRIIB and human ALK4, each separately fused to an Fc domain with a linker (protein) chain 1: GRGEAETRECIYYNANWELERTNQSGLERCEGEQDKRLHCYASWRNSSGTIELVKKGCWLDDFNCYDRQECVATEENPQVYFCCCEGNFCNERFTHLPEAGGPEVTYEPPPTAPTGGGTHTCPPCPAPELLGGPSVFLFPPKPKDTLMISRTPEVTCVVVDVSHEDPEVKFNWYVDGVEVHNAKTKPREEQYNSTYRVVSVLTVLHQDWLNGKEYKCKVSNKALPAPIEKTISKAKGQPREPQVYTLPPSRKEMTKNQVSLTCLVKGFYPSDIAVEWESNGQPENNYKTTPPVLKSDGSFFLYSKLTVDKSRWQQGNVFSCSVMHEALHNHYTQKSLSLSPGK chain 2: SGPRGVQALLCACTSCLQANYTCETDGACMVSIFNLDGMEHHVRTCIPKVELVPAGKPFYCLSSEDLRNTHCCYTDYCNRIDLRVPSGHLKEPEHPSMWGPVETGGGTHTCPPCPAPELLGGPSVFLFPPKPKDTLMISRTPEVTCVVVDVSHEDPEVKFNWYVDGVEVHNAKTKPREEQYNSTYRVVSVLTVLHQDWLNGKEYKCKVSNKALPAPIEKTISKAKGQPREPQVYTLPPSREEMTKNQVSLTCLVKGFYPSDIAVEWESNGQPENNYDTTPPVLDSDGSFFLYSDLTVDKSRWQQGNVFSCSVMHEALHNHYTQKSLSLSPG",GDF3 binding,GDF3; Example 13,substantially reduced binding
same,ka,"GDF3; ligand GDF3, Table 13",3.4e+06 M⁻¹ s⁻¹
same,kd,"GDF3; ligand GDF3, Table 13",0.017 s⁻¹
same,inhibition of GDF11 signaling,GDF11,potent inhibitors
